# What was measured:
# [1] = SEC; GNL-purified Env from 293F supernatant on a Superdex 200 Increase 10/300 GL column; profile decomposed into aggregates, trimer and dimer/monomer fractions (UNICORN)
# BG505 UFO trimer (HIV-1) [2] = assay: negative-stain EM; purified Env proteins at 0.05 mg/ml, 2% uranyl acetate, reference-free 2D class averages
# BG505 UFO trimer (HIV-1) [3] = assay: native gel or EMSA
# [4] = molecular target: CNE5 chimeric UFO trimer with CNE6 gp41_(ECTO) (HIV-1); assay: negative-stain EM; purified Env proteins at 0.05 mg/ml, 2% uranyl acetate, reference-free 2D class averages
# CNE6 UFO trimer (HIV-1) [5] = assay: as above
# CNE6 UFO trimer (HIV-1) [6] = assay: native gel or EMSA
# [7] = molecular target: CNE107 chimeric UFO trimer with CNE6 gp41_(ECTO) (HIV-1); assay: negative-stain EM; purified Env proteins at 0.05 mg/ml, 2% uranyl acetate, reference-free 2D class averages
# [8] = molecular target: MG11 chimeric UFO trimer with CNE6 gp41_(ECTO) (HIV-1); assay: as above
# MG13 UFO trimer (HIV-1) [9] = assay: as above
# MG13 UFO trimer (HIV-1) [10] = assay: native gel or EMSA
substance,measurement,setting,value
BG505 UFO trimer,trimer content (% of the SEC profile),[1],a rate of proper trimer folding of about 75.5%
BG505 UFO trimer (domain or fragment),stoichiometry N,BG505 UFO trimer (HIV-1) [2],3
same,stoichiometry N,BG505 UFO trimer (HIV-1) [3],3
CNE5 chimeric UFO trimer with CNE6 gp41_(ECTO) (domain or fragment),stoichiometry N,[4],3
CNE6 SOSIP trimer,trimer content (% of the SEC profile),[1],21.3% for the SOSIP construct
CNE6 UFO trimer,trimer content (% of the SEC profile),[1],as high as 70.1% for CNE6
CNE6 UFO trimer (domain or fragment),stoichiometry N,CNE6 UFO trimer (HIV-1) [5],3
same,stoichiometry N,CNE6 UFO trimer (HIV-1) [6],3
CNE107 chimeric UFO trimer with CNE6 gp41_(ECTO) (domain or fragment),stoichiometry N,[7],3
MG11 chimeric UFO trimer with CNE6 gp41_(ECTO) (domain or fragment),stoichiometry N,[8],3
MG13 UFO trimer,trimer content (% of the SEC profile),[1],85.6% for MG13
MG13 UFO trimer (domain or fragment),stoichiometry N,MG13 UFO trimer (HIV-1) [9],3
same,stoichiometry N,MG13 UFO trimer (HIV-1) [10],3
